The values that follow come from publication PMC4837377 (Scientific Reports, 2016).

The series concerns the molecule itself. As to the kind of experiment: SEC-MALS. (In general: SEC sorts molecules by how far they enter the pores of the column.)

B1: PA-PB1-PB2(1-116) truncated heterotrimer (construct 15) (complex)
chain 1: […]
chain 2: MDVNPTLLFLKVPAQNAISTTFPYTGDPPYSHGTGTGYTMDTVNRTHQYSEKGKWTTNTETGAAQLNPIDGPLPEDNEPSGYAQTDCVLEAMAFLEESHPGIFENSCLETMEVVQQTRVDRLTQGRQTYDWTLNRNQPAATALANTIEVFRSNGLIANESGRLIDFLKDVIESMDKEEMEITTHFQRKRRVRDNMTKKMVTQRTIGKKKQRVNKRSYLIRALTLNTMTKDAERGKLKRRAIATPGMQIRGFVYFVETLARSICEKLEQSGLPVGGNEKKAKLANVVRKMMTNSQDTELSFTITGDNTKWNENQNPRMFLAMITYITKNQPEWFRNILSIAPIMFSNKMARLGKGYMFESKRMKLRTQIPAEMLASIDLKYFNESTRKKIEKIRPLLIDGTASLSPGMMMGMFNMLSTVLGVSILNLGQKKYTKTTYWWDGLQSSDDFALIVNAPNHEGIQAGVDRFYRTCKLVGINMSKKKSYINRTGTFEFTSFFYRYGFVANFSMELPSFGVSGINESADMSIGVTVIKNNMINNDLGPATAQMALQLFIKDYRYTYRCHRGDTQIQTRRSFELKKLWEQTRSKAGLLVSDGGPNLYNIRNLHIPEVCLKWELMDEDYQGRLCNPLNPFVSHKEIESVNNAVVMPAHGPAKSMEYDAVATTHSWIPKRNRSILNTSQRGILEDEQMYQKCCNLFEKFFPSSSYRRPVGISSMVEAMVSRARIDARIDFESGRIKKEEFSEIMKICSTIEELRRQK
chain 3: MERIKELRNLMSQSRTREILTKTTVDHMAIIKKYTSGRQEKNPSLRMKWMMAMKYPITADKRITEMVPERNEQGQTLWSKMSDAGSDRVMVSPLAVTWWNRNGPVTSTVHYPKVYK
notes: copies: + +
The term stoichiometry N denotes the number of molecules, sites or subunits per partner or assembly. As for B1, the “stoichiometry N” value was determined as 2.

B2: PA-PB1-PB2(1-250) truncated heterotrimer (construct 16) (complex)
chain 1: […]
chain 2: B1 chain 2
chain 3: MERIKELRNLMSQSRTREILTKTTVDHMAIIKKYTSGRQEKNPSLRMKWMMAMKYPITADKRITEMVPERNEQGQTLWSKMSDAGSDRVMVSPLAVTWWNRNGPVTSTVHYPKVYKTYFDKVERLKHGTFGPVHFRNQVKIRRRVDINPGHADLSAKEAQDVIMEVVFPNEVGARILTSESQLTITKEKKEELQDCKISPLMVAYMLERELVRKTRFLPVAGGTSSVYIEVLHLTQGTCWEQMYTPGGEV
notes: copies: + +
As to B2, the “stoichiometry N” value is 2.
